*1 amine or outer side, *2 acyl side, *3 side chain or, on linkers, in order; H or OH if unused. Where no end group is shown, it is not given here. Side-chain parts run from the residue outwards. [ ]: non-standard residue; d: D form. The star is where a group is joined. Decanoyl(10-(4-HOOC-PhO)) = O=C(O)c1ccc(OCCCCCCCCCC(=O)*)cc1; αMePhe(2-F) = C[C@](N)(Cc1ccccc1F)C(=O)O; γGlu = O=C(O)[C@H](CCC(=O)[*:2])N[*:1]; αMeY = C[C@](N)(Cc1ccc(O)cc1)C(=O)O; 4Pal = N[C@@H](Cc1ccncc1)C(=O)O; αMeL = CC(C)C[C@](C)(N)C(=O)O; Lauroyl = CCCCCCCCCCCC(=O)*; Orn = NCCC[C@H](N)C(=O)O; AEEA = NCCOCCOCC(=O)O; Aib = CC(C)(N)C(=O)O
B1: Example 414 (peptide)
peptide: YXEGTXTSDXXIXLDXKAQXXFIXXLIKGGPSSGAPPPS
modifications: Y-Aib-EGT-αMeF(2F)-TSD-4Pal-Aib-I-αMeL-LD-Orn-K((2-[2-(2-Amino-ethoxy)-ethoxy]-acetyl)2-(γ-Glu)-CO-(CH2)10-CH3)AQ-Aib-Orn-FI-(D-Glu)-αMeY-LIK((2-[2-(2-Amino-ethoxy)-ethoxy]-acetyl)2-(γ-Glu)-CO-(CH2)10-CH3)GGPSSGAPPPS-NH2
B2: Example 417 (peptide)
peptide: YXEGTXTSDKXIXLDXKAQXXFIXXLIEGGPSSGAPPPS
modifications: Y-Aib-EGT-αMeF(2F)-TSDK((2-[2-(2-Amino-ethoxy)-ethoxy]-acetyl)2-(γ-Glu)-CO-(CH2)10-CH3)-Aib-I-αMeL-LD-Orn-K((2-[2-(2-Amino-ethoxy)-ethoxy]-acetyl)2-(γ-Glu)-CO-(CH2)10-CH3)AQ-Aib-Orn-FI-(D-Glu)-αMeY-LIEGGPSSGAPPPS-NH2
B3: Example 418 (peptide)
peptide: YXEGTXTSDXXIXLDXKAQXXFIXXLIEGGPSSGAPPPSK
modifications: Y-Aib-EGT-αMeF(2F)-TSD-4Pal-Aib-I-αMeL-LD-Orn-K((2-[2-(2-Amino-ethoxy)-ethoxy]-acetyl)2-(γ-Glu)-CO-(CH2)10-CH3)AQ-Aib-Orn-FI-(D-Glu)-αMeY-LIEGGPSSGAPPPSK((2-[2-(2-Amino-ethoxy)-ethoxy]-acetyl)2-(γ-Glu)-CO-(CH2)10-CH3)-NH2
B4: Example 419 (peptide)
peptide: YXEGTXTSDXXIXLDXKAQXTFIXXLIKGGPSSGAPPPS
modifications: Y-Aib-EGT-αMeF(2F)-TSD-4Pal-Aib-I-αMeL-LD-Orn-K((2-[2-(2-Amino-ethoxy)-ethoxy]-acetyl)2-(γ-Glu)-CO-(CH2)10-CH3)AQ-Aib-TFI-(D-Glu)-αMeY-LIK((2-[2-(2-Amino-ethoxy)-ethoxy]-acetyl)2-(γ-Glu)-CO-(CH2)10-CH3)GGPSSGAPPPS-NH2
B5: Example 420 (peptide)
peptide: YXEGTXTSDXXIXLDXKAQXXFIXXLIEGGPSSGAPPPSK
modifications: Y-Aib-EGT-αMeF(2F)-TSD-4Pal-Aib-I-αMeL-LD-Orn-K((2-[2-(2-Amino-ethoxy)-ethoxy]-acetyl)2-(γ-Glu)-CO-(CH2)10-CH3)AQ-Aib-4Pal-FI-(D-Glu)-αMeY-LIEGGPSSGAPPPSK((2-[2-(2-Amino-ethoxy)-ethoxyl-acetyl)2-(γ-Glu)-CO-(CH2)10-CH3)-NH2
B6: Example 421 (peptide)
peptide: YXEGTXTSDKXIXLDXKAQXEFIXXLIEGGPSSGAPPPS
modifications: Y-Aib-EGT-αMeF(2F)-TSDK((2-[2-(2-Amino-ethoxy)-ethoxy]-acetyl)3-(γ-Glu)-CO-(CH2)10-CH3)-Aib-I-αMeL-LD-Orn-K((2-[2-(2-Amino-ethoxy)-ethoxy]-acetyl)3-(γ-Glu)-CO-(CH2)10-CH3)AQ-Aib-EFI-(D-Glu)-αMeY-LIEGGPSSGAPPPS-NH2
B7: Example 422 (peptide)
peptide: YXEGTXTSDXXIXLDXKAQXKFIXXLIEGGPSSGAPPPS
modifications: Y-Aib-EGT-αMeF(2F)-TSD-4Pal-Aib-I-αMeL-LD-Orn-K((2-[2-(2-Amino-ethoxy)-ethoxy]-acetyl)3-(γ-Glu)-CO-(CH2)10-CH3)AQ-Aib-K((2-[2-(2-Amino-ethoxy)-ethoxy]-acetyl)3-(γ-Glu)-CO-(CH2)10-CH3)FI-(D-Glu)-αMeY-LIEGGPSSGAPPPS-NH2

Assays:
Assay in all cases: cell-based or functional assay
[1] = target: human glucagon receptor (human) (UniProt P47871)
[2] = target: T1, human GIP receptor (human) (UniProt P48546)
T1 sequence (looked up): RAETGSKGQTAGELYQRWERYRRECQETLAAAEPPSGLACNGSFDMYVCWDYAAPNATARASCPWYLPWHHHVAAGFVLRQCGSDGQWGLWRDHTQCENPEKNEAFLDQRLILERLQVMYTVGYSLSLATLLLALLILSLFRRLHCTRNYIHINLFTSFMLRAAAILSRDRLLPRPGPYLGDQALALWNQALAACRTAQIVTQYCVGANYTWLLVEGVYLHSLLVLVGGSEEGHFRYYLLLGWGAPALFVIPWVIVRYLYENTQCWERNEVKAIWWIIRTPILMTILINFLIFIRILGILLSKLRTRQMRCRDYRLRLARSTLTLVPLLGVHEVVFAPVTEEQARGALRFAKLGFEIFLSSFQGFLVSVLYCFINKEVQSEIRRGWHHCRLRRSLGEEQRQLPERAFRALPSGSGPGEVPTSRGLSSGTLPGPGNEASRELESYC

[3] = target: hGLP-1R (Homo sapiens, UniProt P43220)
[4] = target: human glucagon receptor (human, UniProt P47871 26-477)
human glucagon receptor, sequence (P47871 26-477): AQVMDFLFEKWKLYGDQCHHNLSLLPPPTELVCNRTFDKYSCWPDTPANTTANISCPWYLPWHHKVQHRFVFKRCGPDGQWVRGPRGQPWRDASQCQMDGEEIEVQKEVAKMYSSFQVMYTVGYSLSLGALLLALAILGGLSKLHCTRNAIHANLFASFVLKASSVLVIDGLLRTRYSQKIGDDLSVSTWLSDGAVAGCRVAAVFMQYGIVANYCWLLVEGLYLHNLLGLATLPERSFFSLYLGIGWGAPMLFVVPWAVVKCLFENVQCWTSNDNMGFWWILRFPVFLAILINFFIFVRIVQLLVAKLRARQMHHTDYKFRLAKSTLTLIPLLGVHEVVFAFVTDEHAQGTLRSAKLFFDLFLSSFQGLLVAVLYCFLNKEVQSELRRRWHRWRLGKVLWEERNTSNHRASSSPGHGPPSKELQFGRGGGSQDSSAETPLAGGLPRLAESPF

[5] = target: T2, human GIP receptor (human, UniProt P48546 22-466)
T2 sequence (looked up): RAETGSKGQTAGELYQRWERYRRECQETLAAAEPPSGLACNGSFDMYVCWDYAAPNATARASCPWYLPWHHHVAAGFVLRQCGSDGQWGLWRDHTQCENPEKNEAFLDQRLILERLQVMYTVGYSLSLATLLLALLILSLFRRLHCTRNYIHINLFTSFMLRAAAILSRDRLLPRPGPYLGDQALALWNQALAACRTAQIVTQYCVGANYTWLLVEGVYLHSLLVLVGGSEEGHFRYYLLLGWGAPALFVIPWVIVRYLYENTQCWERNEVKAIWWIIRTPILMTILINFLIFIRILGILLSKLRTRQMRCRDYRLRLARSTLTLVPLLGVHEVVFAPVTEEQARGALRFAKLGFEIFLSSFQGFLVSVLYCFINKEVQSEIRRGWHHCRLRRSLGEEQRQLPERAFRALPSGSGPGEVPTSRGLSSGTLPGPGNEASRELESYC

[6] = target: human GLP-1 receptor (human, UniProt P43220 24-463)

Binder	cAMP EC50 [1] [nM]	cAMP EC50 [2] [nM]	cAMP Emax [2] [%]	cAMP EC50 [3] [nM]	cAMP Emax [3] [%]	cAMP EC50 (1.0% HSA) [4] [nM]	cAMP EC50 (1.0% HSA) [5] [nM]	cAMP Emax (1.0% HSA) [5] [%]	cAMP EC50 (1.0% HSA) [6] [nM]	cAMP Emax (1.0% HSA) [6] [%]
Y[Aib]EGT[αMePhe(2-F)]TSDV[Aib]I[αMeL]LD[Orn]K([AEEA-AEEA-γGlu-Decanoyl(10-(4-HOOC-PhO))])AQ[Aib]K([AEEA-AEEA-γGlu-Decanoyl(10-(4-HOOC-PhO))])FI[dE][αMeY]LI[Orn]GGPSSGAPPPS-NH2 [Example 410]	> 9950	0.0118	99.1	0.251	94	> 9950	1.28	86.4	11	93.1
B1	> 9950	0.00961	98.4	0.119	–	> 9950	0.274	92.2	3.24	–
Y[Aib]EGT[αMePhe(2-F)]TSDK([AEEA-AEEA-γGlu-Lauroyl])[Aib]I[αMeL]LD[Orn]K([AEEA-AEEA-γGlu-Lauroyl])AQ[Aib][4Pal]FI[dE][αMeY]LIEGGPSSGAPPPS-NH2 [Example 415]	> 9950	0.00991	101	0.122	109	> 9950	0.492	–	5.72	–
B2	> 9950	0.00651	101	0.0675	109	> 9950	0.201	–	2.66	–
B3	> 9950	0.00599	91	0.0603	93.7	> 9950	0.126	–	1.72	98.8
B4	> 9950	0.00958	101	0.132	113	> 9950	0.44	–	7.19	97.3
B5	> 9950	0.00964	101	0.123	99.7	> 9950	0.351	–	10	109
B6	> 9950	0.00618	100	0.057	101	> 9950	0.164	98	2.01	–
B7	> 9950	0.00655	104	0.0729	106	> 9950	0.199	97.5	3.84	–

— US20230265151A1, “GIP/GLP1 CO-AGONIST COMPOUNDS” (priority 2020, published 2023)
